Test results taken from publication PMC12720783.

Target: LcrG, full length (Yersinia pseudotuberculosis) (UniProt P69958)
Test: ITC

LcrG, full length (Yersinia pseudotuberculosis), sequence (P69958 whole entry): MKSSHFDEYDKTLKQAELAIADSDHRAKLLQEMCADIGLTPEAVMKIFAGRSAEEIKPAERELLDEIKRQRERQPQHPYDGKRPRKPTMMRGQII
LcrV, full length, sequence (P23994 whole entry): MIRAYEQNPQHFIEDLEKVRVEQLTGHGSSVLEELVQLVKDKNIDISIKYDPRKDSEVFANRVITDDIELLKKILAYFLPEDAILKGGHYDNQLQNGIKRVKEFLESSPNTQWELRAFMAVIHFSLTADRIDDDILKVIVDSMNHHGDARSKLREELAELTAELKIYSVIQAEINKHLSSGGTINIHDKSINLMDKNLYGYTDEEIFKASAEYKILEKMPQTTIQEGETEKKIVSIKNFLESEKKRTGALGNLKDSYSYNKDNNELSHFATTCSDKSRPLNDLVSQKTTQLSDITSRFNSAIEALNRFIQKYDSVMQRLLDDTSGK

## LcrV, full length (from UniProt P23994 1-326) (natural protein)
  stoichiometry N: 1
